Where “and” joins values, the source holds several entries; their conditions need not be identical. Equal values may be shown once.
Biological target: poliovirus 3AsolBC protein (poliovirus)
Test: SEC

Q: For “poliovirus 3AsolBC protein (natural protein)”, which Kd is on record?
A: 20 to 60 µM

Q: And the percent of the total absorbance in the leading-edge (dimer) peak?
A: 10% and 30%

Reference: paper PMC10590986
